T1: Ret(h) (human, UniProt P07949 658-1114, limits assumed)
T1 sequence (looked up): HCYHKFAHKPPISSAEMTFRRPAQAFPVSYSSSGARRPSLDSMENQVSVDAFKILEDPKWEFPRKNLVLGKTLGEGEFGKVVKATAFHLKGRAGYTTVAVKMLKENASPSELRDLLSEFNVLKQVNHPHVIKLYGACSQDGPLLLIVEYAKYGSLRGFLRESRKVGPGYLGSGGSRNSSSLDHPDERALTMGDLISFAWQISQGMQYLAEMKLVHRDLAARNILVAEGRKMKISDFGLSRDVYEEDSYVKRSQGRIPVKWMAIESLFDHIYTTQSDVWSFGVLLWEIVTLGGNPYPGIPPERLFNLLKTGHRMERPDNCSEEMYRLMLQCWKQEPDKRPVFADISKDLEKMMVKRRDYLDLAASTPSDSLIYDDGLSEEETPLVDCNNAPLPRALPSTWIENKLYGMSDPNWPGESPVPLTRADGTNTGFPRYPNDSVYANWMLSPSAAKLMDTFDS

T2: BrSK1(h) (human, UniProt Q8TDC3 1-778, limits assumed)
T2 sequence (looked up): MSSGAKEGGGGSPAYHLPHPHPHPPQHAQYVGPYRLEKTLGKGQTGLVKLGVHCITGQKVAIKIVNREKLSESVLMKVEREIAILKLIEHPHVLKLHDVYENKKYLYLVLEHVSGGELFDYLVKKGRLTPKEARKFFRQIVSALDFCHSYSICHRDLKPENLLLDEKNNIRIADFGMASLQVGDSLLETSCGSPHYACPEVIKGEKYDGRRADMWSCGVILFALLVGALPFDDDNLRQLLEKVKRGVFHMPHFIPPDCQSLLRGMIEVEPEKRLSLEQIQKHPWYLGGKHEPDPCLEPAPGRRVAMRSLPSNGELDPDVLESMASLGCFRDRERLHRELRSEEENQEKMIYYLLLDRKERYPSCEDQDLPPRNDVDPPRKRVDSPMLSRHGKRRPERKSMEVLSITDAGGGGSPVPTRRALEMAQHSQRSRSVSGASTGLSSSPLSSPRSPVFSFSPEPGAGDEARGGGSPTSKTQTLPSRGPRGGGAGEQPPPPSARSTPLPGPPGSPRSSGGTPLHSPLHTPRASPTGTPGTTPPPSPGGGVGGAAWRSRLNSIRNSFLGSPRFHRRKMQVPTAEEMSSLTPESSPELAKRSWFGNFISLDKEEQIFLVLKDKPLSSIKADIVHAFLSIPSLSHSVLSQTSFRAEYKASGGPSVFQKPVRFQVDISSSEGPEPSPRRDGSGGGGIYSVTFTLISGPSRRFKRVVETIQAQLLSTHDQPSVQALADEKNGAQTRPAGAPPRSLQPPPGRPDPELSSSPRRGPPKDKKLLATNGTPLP

T3: CHK1(h) (human, UniProt O14757 1-476)
T3 sequence (looked up): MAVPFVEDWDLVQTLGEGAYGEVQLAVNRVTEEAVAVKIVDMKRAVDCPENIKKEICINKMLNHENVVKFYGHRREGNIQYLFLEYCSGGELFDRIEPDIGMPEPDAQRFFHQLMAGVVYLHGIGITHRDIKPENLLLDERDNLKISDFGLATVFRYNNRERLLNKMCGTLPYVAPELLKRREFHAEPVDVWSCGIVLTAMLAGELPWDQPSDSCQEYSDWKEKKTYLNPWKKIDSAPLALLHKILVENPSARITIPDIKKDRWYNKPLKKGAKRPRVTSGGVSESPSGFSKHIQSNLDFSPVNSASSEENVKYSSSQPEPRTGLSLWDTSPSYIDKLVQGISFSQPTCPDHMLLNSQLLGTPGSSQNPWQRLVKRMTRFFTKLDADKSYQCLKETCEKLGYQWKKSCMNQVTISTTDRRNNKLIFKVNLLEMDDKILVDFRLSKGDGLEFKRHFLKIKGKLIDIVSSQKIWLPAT

T4: EphA8(h) (human, UniProt P29322 564-1005, limits assumed)
T4 sequence (looked up): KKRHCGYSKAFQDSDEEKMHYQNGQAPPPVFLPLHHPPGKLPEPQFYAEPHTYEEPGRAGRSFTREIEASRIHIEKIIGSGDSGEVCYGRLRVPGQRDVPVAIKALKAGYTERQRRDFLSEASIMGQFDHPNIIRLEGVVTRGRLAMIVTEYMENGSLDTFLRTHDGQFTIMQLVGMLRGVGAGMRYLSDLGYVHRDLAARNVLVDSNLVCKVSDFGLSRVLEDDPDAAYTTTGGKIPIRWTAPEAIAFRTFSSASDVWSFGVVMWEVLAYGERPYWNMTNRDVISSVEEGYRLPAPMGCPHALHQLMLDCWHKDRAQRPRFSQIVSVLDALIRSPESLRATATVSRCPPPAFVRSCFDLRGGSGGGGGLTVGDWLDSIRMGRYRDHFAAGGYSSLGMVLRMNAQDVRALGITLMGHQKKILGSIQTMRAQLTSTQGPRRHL


Legend:
Experiment in all cases: cell-based or functional assay
KDR(h) = KDR(h) (human, UniProt P35968 790-1356, limits assumed)
AMPKa1(h) = AMPKa1(h) (human, UniProt Q13131 1-559, limits assumed)
p70S6K(h) = p70S6K(h) (human, UniProt P23443 1-421, limits assumed)
Ret(h) = molecular target: T1, Ret(h)
BrSK1(h) = molecular target: T2, BrSK1(h)
Tie2(h) = Tie2(h) (human, UniProt Q02763 771-1124, limits assumed)
WNK2(h) = WNK2(h) (human, UniProt Q9Y3S1 166-489, limits assumed)
CDK3/cyclinE(h) = CDK3/cyclinE(h) (human, UniProt Q00526 1-305; Q00526 1-305)
CHK1(h) = molecular target: T3, CHK1(h)
DAPK1(h) = DAPK1(h) (human, UniProt P53355 1-289, limits assumed)
EGFR(T790M,L858R)(h) = EGFR(T790M,L858R)(h) (human, UniProt P00533 696-1210, limits assumed)
EphA8(h) = molecular target: T4, EphA8(h)
Fer(h) = Fer(h) (human, UniProt P16591 541-822, limits assumed)
Fes(h) = Fes(h) (human, UniProt P07332 1-822, limits assumed)
Note: test concentration or dose not given here.

| % activity (KDR(h)) | % activity (AMPKa1(h)) | % activity (p70S6K(h)) | % activity (Ret(h)) | % activity (BrSK1(h)) | % activity (Tie2(h)) | % activity (WNK2(h)) | % activity (CDK3/cyclinE(h)) | % activity (CHK1(h)) | % activity (DAPK1(h)) | % activity (EGFR(T790M,L858R)(h)) | % activity (EphA8(h)) | % activity (Fer(h)) | % activity (Fes(h)) | Binder |
| --- | --- | --- | --- | --- | --- | --- | --- | --- | --- | --- | --- | --- | --- | --- |
| 101% | 71% | 35% | 140% | 67% | 26% | 64% | 94% | 91% | 46% | 85% | 93% | 130% | 20% | FAKLAARLYRKALARQLGVAA [MMI-0300] |
| 94% | 87% | 33% | 145% | 76% | 21% | 54% | 92% | 87% | 36% | 78% | 146% | 108% | 16% | KAFAKLAARLYRKALARQLGVAA [MMI-0400] |
